Test results: article PMC2893164, “Structural Basis of Gate-DNA Breakage and Resealing by Type II Topoisomerases”

Target: ParC55 (topoisomerase IV ParC breakage-reunion domain);ParE30 (topoisomerase IV ParE TOPRIM domain) (Streptococcus pneumoniae;Streptococcus …, UniProt P72525;Q59961 1-488;404-647, |)
Test: X-ray crystallography (3.1 A); PD 0305970 (two intercalated), Mg2+; cleaved DNA, covalent Tyr118; Complex: 20 mM Tris-HCl pH 7.0, 200 then 75 mM NaCl, 10% glycerol, 1 mM b-mercaptoethanol, 20 mM MgCl2, 0.05% NaN3, PD 0305970, room temperature; crystals: 50 mM Na cacodylate pH 6.5, 2.5% Tacsimate pH 7.0, 62.5 mM KCl, 7.5 mM MgCl2, 4-6% isopropanol; data at 100 K
Details: protein: recombinant;recombinant; tags: C-terminal His tag;N-terminal His tag; chain copies: 2;2; blunt

Sequence of ParC55 (topoisomerase IV ParC breakage-reunion domain);ParE30 (topoisomerase IV ParE TOPRIM domain) (P72525 1-488, chain 1 of 2): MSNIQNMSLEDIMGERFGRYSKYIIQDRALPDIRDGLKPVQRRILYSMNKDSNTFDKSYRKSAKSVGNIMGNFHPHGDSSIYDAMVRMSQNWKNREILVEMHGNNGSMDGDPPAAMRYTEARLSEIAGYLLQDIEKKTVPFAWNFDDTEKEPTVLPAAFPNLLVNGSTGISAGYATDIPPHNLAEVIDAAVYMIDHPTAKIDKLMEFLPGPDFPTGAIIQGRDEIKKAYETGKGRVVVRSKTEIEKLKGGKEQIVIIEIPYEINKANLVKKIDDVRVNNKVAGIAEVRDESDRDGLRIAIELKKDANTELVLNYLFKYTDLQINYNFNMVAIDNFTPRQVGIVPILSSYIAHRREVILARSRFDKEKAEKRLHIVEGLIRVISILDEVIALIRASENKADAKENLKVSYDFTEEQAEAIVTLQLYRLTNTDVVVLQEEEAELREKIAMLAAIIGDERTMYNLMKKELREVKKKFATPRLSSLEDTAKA
Sequence of ParC55 (topoisomerase IV ParC breakage-reunion domain);ParE30 (topoisomerase IV ParE TOPRIM domain) (Q59961 404-647, chain 2 of 2): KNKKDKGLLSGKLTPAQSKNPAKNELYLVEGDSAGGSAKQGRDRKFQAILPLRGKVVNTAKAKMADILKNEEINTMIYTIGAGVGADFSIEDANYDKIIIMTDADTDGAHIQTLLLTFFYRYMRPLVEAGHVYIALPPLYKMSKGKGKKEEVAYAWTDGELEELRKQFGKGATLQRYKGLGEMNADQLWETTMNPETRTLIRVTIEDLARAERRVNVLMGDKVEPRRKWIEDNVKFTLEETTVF

B1: 34-bp E-site G-segment DNA (dsDNA)
DNA 1: ACCAAGGTCATGAATGACTATGCACGTAAAACAG
DNA 2: CTGTTTTACGTGCATAGTCATTCATGACCTTGGT
modifications: none (cleaved with 4-bp stagger in the complex, or resealed, by row)
Q: Does B1 bind?
A: Result: binds
